Data published in patent US12514920B1, “Respiratory syncytial virus mRNA vaccine, and preparation method therefor and use thereof” (Hangzhou Tianlong Pharmaceutical Co., Ltd., priority 2024, dated 2026).
Where a chain is given by its changes, count along the chain named.

B1: YK-RSV-052 (protein)
chain: QNITEEFYQSTCSAVSKGYLGALRTGWYTSVITIELSNIKENKCNGTDAKVKLIKQELDKYKNAVTDLQLLMQSTPATGSGCAIASGVAVSKVLHLEGEVNKIKSALLSTNKAVVSLSNGVSVLTFKVLDLKNYIDKQLLPILNKQSCSIPNIETVIEFQQKNNRLLEITREFSVNAGVTTPVSTYMLTNSELLSLINDMPITNDQKKLMSNNVQIVRQQSYSIMSIIKEEVLAYVVQLPCYGVIDTPCWKLHTSPLCTTNTKEGSNICLTRTDRGWYCDNAGSVSFFPQAETCKVQSNRVFCDTMNSRTLPSEVNLCNVDIFNPKYDCKIMTSKTDVSSSVITSLGAIVSCYGKTKCTASNKNRGIIKTFSNGCDYVSNKGVDTVSVGNTLYYVNKQEGQSLYVKGEPIINFYDPLVFPSDEFDASISQVNEKINQSLAFIRKSDELLHNVNAGKSTTNIMITTIIIVIIVILLSLIAVGLLLY
B2: YK-RSV-059 (protein)
chain: B1 chain with C82S, C241L, N261C, G407C
B3: YK-RSV-058 (protein)
chain: B1 chain with C82S, C241L, S266C, G407C
B4: YK-RSV-002 (protein)
chain: B1 chain with T29H, C82S, A85C, S91C, L143V, S226C, C241L, Y394C, D422S
B5: YK-RSV-051 (protein)
chain: QNITEEFYQSTCSAVSKGYLGALRTGWYTSVITIELSNIKENKCNGTDAKVKLIKQELDKYKNAVTDLQLLMQSTPATGSGSFLGCLLGVGSAIASGVAVSKVLHLEGEVNKIKSALLSTNKAVVSLSNGVSVLTFKVLDLKNYIDKQLLPILNKQSCSIPNIETVIEFQQKNNRLLEITREFSVNAGVTTPVSTYMLTNSELLSLINDMPITNDQKKLMSNNVQIVRQQSYSIMSIIKEEVLAYVVQLPLYGVIDTPCWKLHTSPLCTTNTKEGSNICLTRTDRGWYCDNAGSVSFFPQAETCKVQSNRVFCDCMNSRTLPSEVNLCNVDIFNPKYDCKIMTSKTDVSSSVITSLGAIVSCYGKTKCTASNKNRGIIKTFSNGCDYVSNKGVDTVSVGNTLYYVNKQEGQSLYVKGEPIINFYDPLVFPSDEFDASISQVNEKINQSLAFIRKSDELLHNVNAGKSTTNIMITTIIIVIIVILLSLIAVGLLLY

What follows are molecules tested on RSV pre-F antibody (3C12) (assay: Binding of epitope Φ of RSV F antigen mutants by flow cytometry). Settings: flow cytometry; epitope Φ, antibody 3C12.
How it was run: (§1)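 293T cells were transfected with mRNA-LNP (300 ng mRNA) encoding the RSV F mutants and harvested after 16 h. Cells were stained with fluorescent 3C12 (pre-F-specific epitope Φ) or 11A9 (epitope II, pre-F and post-F) for 2 h at 4 °C in the dark, then washed and read by flow cytometry on 1×10^4 cells per measurement.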

Molecule | RSV pre-F antibody (3C12) Epitope Φ (%) binding rate [%]
B1 | 89.4
B2 | 83.1
B3 | 81.2
B4 | 88.0
B5 | 76.8

Same assay, conditions: ratio of epitope Φ (3C12) to epitope II (11A9) binding rate

Molecule | Φ/II (%)
B1 | 95.4
B2 | 92.5
B3 | 91.5
B4 | 94.1
B5 | 88.2

Each molecule was assayed on RSV F antibody (11A9) (assay: Binding of epitope II of RSV F antigen mutants by flow cytometry). Settings: epitope II, antibody 11A9.
How it was run: as §1

Molecule | RSV F antibody (11A9) Epitope II (%) binding rate [%]
B1 | 93.7
B2 | 89.8
B3 | 88.7
B4 | 93.5
B5 | 87.1

The molecules below were run on RSV pre-F antibody (3C12) (assay: not given). Settings: high osmotic pressure 3000 mM, room temperature, 60 min; ELISA binding to 3C12.
Type: physicochemical
How it was run: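 RSV F mRNA-vaccine mutants stress-treated: 4° C. for one week, 50° C. for 60 min, low or high osmotic pressure at room temperature for 60 min, acid or base at room temperature for 60 min. Binding to 3C12 (epitope Φ) then measured by ELISA against pre-F trimer standard, HRP anti-human IgG, OD 450/630 nm.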

Molecule | Stress resistance parameter, Osmotic pressure (mM) 3000
B1 | 0.30 ± 0.06
B2 | 0.44 ± 0.03
B3 | 0.50 ± 0.05
B4 | 0.44 ± 0.13
B5 | 0.44 ± 0.00

Same assay, conditions: incubation at 50° C. for 60 min; ELISA binding to 3C12

Molecule | Stress resistance parameter, Temperature (° C.) 50
B1 | 0.69 ± 0.09
B2 | 0.74 ± 0.07
B3 | 0.73 ± 0.09
B4 | 0.46 ± 0.06
B5 | 0.60 ± 0.08

Same assay, conditions: low osmotic pressure 10 mM, room temperature, 60 min; ELISA binding to 3C12

Molecule | Stress resistance parameter, Osmotic pressure (mM) 10
B1 | 0.88 ± 0.21
B2 | 0.49 ± 0.02
B3 | 0.60 ± 0.04
B4 | 0.84 ± 0.14
B5 | 0.51 ± 0.13

Same assay, conditions: pH 3.5, room temperature, 60 min; ELISA binding to 3C12

Molecule | Stress resistance parameter, pH 3.5
B1 | 0.80 ± 0.04
B2 | 0.73 ± 0.03
B3 | 0.72 ± 0.03
B4 | 0.65 ± 0.08
B5 | 0.69 ± 0.14

Same assay, conditions: pH 10, room temperature, 60 min; ELISA binding to 3C12

Molecule | Stress resistance parameter, pH 10
B1 | 1.22 ± 0.14
B2 | 0.82 ± 0.09
B3 | 0.81 ± 0.05
B4 | 0.97 ± 0.14
B5 | 1.00 ± 0.17

Same assay, conditions: storage at 4° C. for one week; ELISA binding to 3C12

Molecule | Stress resistance parameter, Temperature (° C.) 4
B1 | 0.42 ± 0.10
B2 | 0.52 ± 0.10
B3 | 0.36 ± 0.07
B4 | 0.61 ± 0.11
B5 | 0.33 ± 0.05
